The nature of the data set: yeast display, Sf9 membrane polyspecificity reagent, FACS + sequencing; frameworks hold sequencing errors. In short, it runs like this: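 Sorting gates, low and high (top ~1%), were placed on anti-HA fluorescence to track expression and on streptavidin fluorescence to track reagent binding. A clone's polyreactivity label is taken from the gate it came out of. The reagent was 10% biotinylated, detergent-solubilized Sf9 membrane, applied for 1 hour at 4 °C to galactose-induced yeast display cells.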
In the case of “QVQLVESGVRLVQAGGSLRLSCAASGFNFRRYAMGWYRPAPGKERELVAAISWRSGSTYYADSVKGRFTISRDNAKNTVYLQMNSLKPEDTAVYYCAAKDQATYQLNYWGQGTQVTVSS”, the “polyreactivity (PSR sort gate)” value is “high polyreactivity”.
On to “QVQLVESPGGLVQAGGSLRLSCAASGRTFYRNAMGWYRQAPGKERELVAVISLNGGRTYYADSVKGRFTISRDNAKNTVYLQMNSLKPEDTAVYYCNKLTGPVFTRGFYYWGQGTQVTVSS”, for which the “polyreactivity (PSR sort gate)” value is reported as “high polyreactivity”.
For “QVQLVESRAGLVQEGGSLRVSCAASGNILGTYAMGWYRQAPGKERELVAAISSSVGSTYYADSVKARFTISRDNAKNTVYLQINSLKPEDTAVYYCAPQPRVDYEFPYRYGYWGQGSQVTVSS”, the “polyreactivity (PSR sort gate)” value is “low polyreactivity”.
As to “QVQLVESRGALVQAGGSLRLSCAASGLILWVNAMGWNRQAPGKERELVAAISWSSGSTYYADSVKGRFTISRDNAKNTVYLQMNSLKPEASAVYYCAASVRRTGSICHYYYSGQGTQVTVSS”, the “polyreactivity (PSR sort gate)” value was “high polyreactivity”.
Next, “QVQLVESRGCLVQAGVSLRLSCAASGSTFQSYAMGCYRQAPGKERELVAAISTSETDRTYYADSVKGRFTISRDNAKNTVYLQMISLKPEDTAVYYCNADGYSHGDWYGYWGQGTQVTVSS”: “low polyreactivity”; “QVQLVESRGGLVKAGGSLRLSCAASGRIFRKYDMGWYRQAPGKERELVAAISGTGITYYADSVKGRFTISRDNAKNTVYLQMNRLKPEDTAVYYCARGSKPRAWSWAFASATSIYEYWGQGTQLTVSS”: “low polyreactivity”; “QVQLVESRGGLVQAGCSLRLSCAASGSIFLHKAMGWYRQAPGKERELVAVITSRGGSTYYADSVKGRFTISRDNAKITVYVQMNSLNPEDPAVYYCAAPDYHKRTSRGDYWGQGTQVTVSS”: “low polyreactivity”.
For the sequence “QVQLVESRGGLVQAGGSHRLSCAASGSIFGYYAMGWYRQAPGNERELVAAIRSTGSTNYADSVKGRFTISRDNAQNSVYLQMNSLKPVDTAVYYCAAGYITWGSGNWVVTPYDYWGQGTQVTVSS”, the “polyreactivity (PSR sort gate)” value is recorded as “high polyreactivity”.
In the case of “QVQLVESRGGLVQAGGSHRLSCADAGYSNIANAMGSDRQAPGKERELVAAISIGGNTKYADSVKGRFTISRDNAKNTVYLQMNSLKPEDTAVYYCAVEDQYYSVSLGGEYDYWGQGTQVTVSS”, the “polyreactivity (PSR sort gate)” value is listed as “high polyreactivity”.
Next, “QVQLVESRGGLVQAGGSLPLSCAASGSIFDRYAMGWYRQAPGKERELVAAISRSGGSTYYADSVKGRFTISRDNAKNTVYLQMNSLKPEDTAVYYCAARARSLYDYWGQGTQVTVSS”: “high polyreactivity”.
Next, “QVQLVESRGGLVQAGGSLRFSCAASGSTFRDYAMGGSRQAPGKERQVLAAISSTGGRTYYADSVKGRFTISRDNAKNTVYLQMNSLKPEDTAVYYCKAALYPSLDYGSASISKSYDYWGQGTQVTVSS”: “high polyreactivity”.
On to “QVQLVESRGGLVQAGGSLRISCPDSGFTFTKNAMGWYRQAPGKERELVAAISRGRGRTYYADSVKGRFTISRDNAKNTVYFQMNSLIPEDTAVYYCNVDKVGPGYDYWGQGTQVTVSS”, for which the “polyreactivity (PSR sort gate)” value is “high polyreactivity”.
Take “QVQLVESRGGLVQAGGSLRLSCAASGFIFTRNAMGWYRQAHGKVRELVAAISYSGGSTYYADSVKGRFTISRDNAKNTVYLQMNSLKPEDTAVYYCNVSPTTSGDGGGYDSWGQGTLVTVSS”: the “polyreactivity (PSR sort gate)” value is “low polyreactivity”.
In the case of “QVQLVESRGGLVQAGGSLRLSCAASGFTLPANGMGWYRQAPGKERELVAAISFIAGSTYYADSVKGRFTISRDNEKNTVYFQMNSLKPEDTAVYYSATQFPPSSIYDYWGQGTQVTVSS”, the “polyreactivity (PSR sort gate)” value is on record as “low polyreactivity”.
For “QVQLVESRGGLVQAGGSLRLSCAASGIIFPRYAMGRYRQAPRKERELVAAITRRGGRTYYADSVKGRFTISRDNANNTVYLQMNSLKPEDTAVYYCNADFISTRPPKATDEDYWGQGTQVTVSS”, the “polyreactivity (PSR sort gate)” value was “high polyreactivity”.
Regarding “QVQLVESRGGLVQAGGSLRLSCAASGITFPRYAMGWYRPAPGKERELVARITSGGRTNYADSVKGRFTISRDNAKNTVYLQMNSLKPEDTAFYYCNAVAQSGRYDYWGQGTQVTVSS”, the “polyreactivity (PSR sort gate)” value is “high polyreactivity”.
“QVQLVESRGGLVQAGGSLRLSCAASGLIFTVNAMGWYRQAPGKERELVAAISQSGGSTYYADSVKGRFTISRDNAKNTVYLQMNSLKPEDTAVYYCAAKSDPYRHDYWGQGTQVTVSS”: the “polyreactivity (PSR sort gate)” value is listed as “low polyreactivity”.
On to “QVQLVESRGGLVQAGGSLRLSCAASGRIFGDNAMGWSRQAPGKEREFVATINGSGGSTYYADSVKGRFTISRDNAKNTVYLQMNSLKPEDTAVYYCFVYGYVPYNYWGQGTQVTVSS”, for which the “polyreactivity (PSR sort gate)” value is “low polyreactivity”.
Turning to “QVQLVESRGGLVQAGGSLRLSCAASGRIFRYNAMGWYRQAPGKERELVAAITWSGVSTYYADSVKGRFTISRDNAKNTGYLQMNSLKPEHTAVYYCNARRWPAWSSDDYWGQGTQVTVSS”, the “polyreactivity (PSR sort gate)” value is on record as “high polyreactivity”.
Regarding “QVQLVESRGGLVQAGGSLRLSCAASGRIFRYYAMGWYRQAPGTEREMVAAIRYRGASTYYADSVKGRFTISRDNAKNTVYLQMNSLKPEDTAVYYCAAYDYHPYRIVGASRSDYWGQGTQVTVSS”, the “polyreactivity (PSR sort gate)” value was “high polyreactivity”.
With “QVQLVESRGGLVQAGGSLRLSCAASGRIFSIYAMGWYRQAPGKERELVAAITNGGGSTYYADSVKGRFTISRDNAKNTVYLPMISLKPEDTAVYYCAARSPGGKNTKYYWGQGTQVTVSS”, the “polyreactivity (PSR sort gate)” value is given as “high polyreactivity”.
Regarding “QVQLVESRGGLVQAGGSLRLSCAASGRIFSSYAMGWYRQAPGKERELVAAISSRGGSTYYADSVKGRFTISRDNAKNTVYLQMNSLKPDDTAVYYCARVKYSGVVYKYDYWGQGTQVTVSS”, the “polyreactivity (PSR sort gate)” value was “high polyreactivity”.
Consider “QVQLVESRGGLVQAGGSLRLSCAASGRILHFNAMGWYRQAPGKEREFVASISWSGGFTYYADSVKGRFTISRDNAKNTVYLQMNSLTPEDTAVYYCARGYGYGDHAMGYWGQGTQVTVSS”, for which the “polyreactivity (PSR sort gate)” value was “high polyreactivity”.
In the case of “QVQLVESRGGLVQAGGSLRLSCAASGRTFDRNAMGWYRQAPGKERQFVAAITSRVGSTYYADSVKGLFTISRDTAKNTVYLQMNSQKPEDTAVYDCNKRYFGEQTWVGGDSWGQGTLVTVSS”, the “polyreactivity (PSR sort gate)” value is recorded as “high polyreactivity”.
Take “QVQLVESRGGLVQAGGSLRLSCAASGRTFEYNAMGWYRQAPGKERELVATIRYSGTSTYADSVKGRFTISRDNAKNTVYLQMNSLKPEDTAVYYCAKQVRYYGYKYNYWGQGTQVTVSS”: the “polyreactivity (PSR sort gate)” value is given as “high polyreactivity”.
Regarding “QVQLVESRGGLVQAGGSLRLSCAASGSIFLSYAMGWYRQAPGKERELVADISRSGGSTYYADSVKGRFTISRDNAKNTVYLQMNSLKPEDTAVYYCAVYIAVYEGDYWGQGSQVTVSS”, the “polyreactivity (PSR sort gate)” value was “low polyreactivity”.
Regarding “QVQLVESRGGLVQAGGSLRLSCAASGSIFRPYAMGWYRQAPGKERELVAAISSSGGSTYYADSVKGRFTISRDNAKNTVYLQMNSLKPEDTAVYYCAAESRSTWIHSRDYWGQGTQVTVSS”, the “polyreactivity (PSR sort gate)” value was “low polyreactivity”.
Consider “QVQLVESRGGLVQAGGSLRLSCAASGSIFYVYAMGWYRQAPAKERELVAAITSSGTTNYADSVKGRFTIPRDNAKNTVYLQMNSLKPEDTAVYYCAADPDSGQVPFDYWGQGTQVTVSS”, for which the “polyreactivity (PSR sort gate)” value is “low polyreactivity”.
For “QVQLVESRGGLVQAGGSLRLSCAASGSTFDGNAMGWYRQAPGKERELVAAISIGGSTSYADSVKGRFTISRDNAKNTVYLQMNSLNPEDTAVYYCAADRYRTFYQWKRYRYDYWGQGTQVTVSS”, the “polyreactivity (PSR sort gate)” value is reported as “high polyreactivity”.
With “QVQLVESRGGLVQAGGSLRLSCAASGSTFTHYAMGRYRHAPGKERELVAAISWGGGTTRYADSVKGRFTISRDNAKNSVYLQMNSLKPVDTAVYYCAKRVRTGSVGNFNYWGQGTQVSVSS”, the “polyreactivity (PSR sort gate)” value is “high polyreactivity”.
Consider “QVQLVESRGGLVQAGGSLRLSCAASGSTSYIYVMGWYRQAPGKERELVATISKNGGDTYADSVKGRFTISRDNAKNTVYLQMNSLKPEDTAVYYCYARAYLYNRRISSRYNYWGQGTQVTVSS”, for which the “polyreactivity (PSR sort gate)” value is “high polyreactivity”.
As to “QVQLVESRGGLVQAGGSLRLSCAASRSTFGVNAMGWYRQAPGKERELVARISSGVRTYYADSVKGRFTISRDNAKNTVYLQMNSMIPEDTAVYYCAAVYFRGVDRAFLSYSYYYWGQGTQVTVSS”, the “polyreactivity (PSR sort gate)” value is given as “high polyreactivity”.
The same measure for “QVQLVESRGGLVQAGGSLRLSCAPSGLIFWAYARGWYRQAPGNERELVAAINWRGGSTYYADSVKGRFTISRDNAKNTVYLQMNSLKPEDTAVYYCAADSYYDEYDYWGQGTQVTVSS”: “low polyreactivity”; for “QVQLVESRGGLVQAGGSLRLSCDASGFIFTLYAMGWYRQAPGKERELVASIRGSGGNTYYADSVKGRFTISRDNAKNTVYLQMNSLKPEDTAVYYCAARTYRRPYSSWGQGTQVTVSS”: “high polyreactivity”; for “QVQLVESRGGLVQAGGSLRLSCGASGFIFKPYAMGWYRQAPGKERELVASISTGARTYYADSVKGRFTISRDNAKNTVYLQMNSLKPEDTGVYYCAAAYSRWITRYDYWGQGTQVTVSS”: “high polyreactivity”.
Next, “QVQLVESRGGLVQAGGSLRLSCPASGFTNWRNDMGWYRQAPGKERELVADISTAGRTYYADSVKGRFTISRDNAKNTVYLQMNSLNPEDTAVYYCAKRSYYKDQPRYGYWGQGTQVTVSS”: “low polyreactivity”.
Next, “QVQLVESRGGLVQAGGSLRLSCPDSGITLSEYAMGWYRQAPGKERELVATISWRGGTTYYADSVKGLFTISRDNAKNTVSLQMIILNPEDTAVYYCAASWWSFGCYTWKAYDYWGQGTQVTVSS”: “high polyreactivity”.
Regarding “QVQLVESRGGLVQAGGSLRLSSAASAFIFGSNAMGWYRQAPGKERELVAAISRSGGSTYYADSVKGRFTISRDNAKKTVYLQMNSLKPEDTAVYYCNVDLWPFVYSWWSYDYWGPGTQVTVSS”, the “polyreactivity (PSR sort gate)” value is “high polyreactivity”.
In the case of “QVQLVESRGGLVQAGGSLRLSSAASGSIIWYYAMGWYRQAPGKERELVAAITVSGGSTYYADSVKGRFTISRDNAKNTVYLQMNSLKPEDSAVYYCAARYISLSGDEYDYWGQGTQVTVSA”, the “polyreactivity (PSR sort gate)” value is listed as “low polyreactivity”.
For the sequence “QVQLVESRGGLVQAGRSLRLSCAASGSTFVQYVMGWYRQAPGKERELVAAITRSGGSTYYADSVKGRFTISRDNAKNTVYLHMNSLKPEDTAVYYCAAVPWRRSTRYDYWGQGTQVTVSS”, the “polyreactivity (PSR sort gate)” value is “high polyreactivity”.

(Values after the nanobody polyreactivity screen of Harvey et al. (2022).)
